The test system of this series is MS2 coat protein. The series can be described thus: apparent KD of MS2 coat protein; designed switch direction (-1 OFF switch, 1 ON switch): -1; higher = weaker reporter binding. The procedure, abridged:
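An oligonucleotide input, 200 uM small-molecule ligand, or no input was present during titration of SNAP-549-labelled MS2 coat protein, which was doubled from 0.7 or 1.5 nM to 3 µM. Designed RNA switches had been transcribed on Illumina chips by stalled E. coli RNA polymerase. Apparent KD per design is the median over clusters of curves fitted to normalised cluster fluorescence.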

The mark [1] stands for this setting: Eterna round: R95, input ligand: microRNA oligo, concentration not stated.
Setting [2] is: input ligand: microRNA oligo, concentration not stated.
The mark [3] stands for this setting: Eterna round: R95, input ligand: FMN 200 uM.
The mark [4] stands for this setting: Eterna round: R95, input ligand: none.

“UCGGCGCGAGGAUAUACGUUUGCGCGUUUUCGUUUUCGCGUACAUGAGGAUCACCCAUGUAGAAGGCGCGCCGC [Apr-15 SS2-15] (puzzle: Exclusion 2)”: under setting [1], the “apparent KD of MS2 coat protein” value was 0.014 µM.

For “UCGGCGCGAGGAUAUACGUUUGCUCUUUUUCGUUUUUGUGUACAUGAGGAUCACCCAUGUAGAAGGCGCGCCGC [Apr-15 SS2-19] (Eterna round: R96, puzzle: Exclusion 2)”, the “apparent KD of MS2 coat protein” value worked out at 0.0809 µM (input ligand: FMN 200 uM), 0.0173 µM under setting [2] and 0.0315 µM (input ligand: none).

In the case of “UCGGCGCGAGGAUAUACGUUUGCUCUUUUUCGUUUUUGUGUACAUGAGGAUCACCCAUGUAGAAGGCGCGCCGC [Apr-15 SS2-19] (puzzle: Exclusion 2)”, the “apparent KD of MS2 coat protein” value under setting [1] is 0.017 µM.

Consider “UCGGCGCGAGGAUAUACGUUUGCUUUUUUGGGUCGUUGCGUACAUGAGGAUCACCCAUGUAGAAGGCGCGCCGC [Apr-15 SS2-25] (Eterna round: R96, puzzle: Exclusion 2)”, for which the “apparent KD of MS2 coat protein” value is, setting by setting: (input ligand: FMN 200 uM) 0.145 µM; under setting [2], 0.0259 µM; (input ligand: none) 0.0318 µM.

In the case of “UCGGCGCGAGGAUAUACGUUUGCUUUUUUGGGUCGUUGCGUACAUGAGGAUCACCCAUGUAGAAGGCGCGCCGC [Apr-15 SS2-25] (puzzle: Exclusion 2)”, the “apparent KD of MS2 coat protein” value under setting [1] is 0.0241 µM.

Turning to “UCGGCGCGAGGAUAUGCGGUUCCUCCCUAGGGCCGGAGCGUACAUGAGGAUCACCCAUGUAGAAGGCGCGCCGC [Apr-15 SS2-35] (puzzle: Exclusion 2)”, under setting [1], the “apparent KD of MS2 coat protein” value was 0.0112 µM.

On to “UCGGCGCGAGGAUAUGCGGUUGCUCCCUAGGGUCGGAGCGUACAUGAGGAUCACCCAUGUAGAAGGCGCGCCGC [Apr-15 SS2-34] (puzzle: Exclusion 2)”, for which the “apparent KD of MS2 coat protein” value under setting [1] was found to be 0.0124 µM.

Consider “UCGGCGCGAGGAUAUGCGGUUGCUUGGUAGGGUCGUGGCGUACAUGAGGAUCACCCAUGUAGAAGGCGCGCCGC [Apr-15 SS2-32*] (puzzle: Exclusion 2)”, for which the “apparent KD of MS2 coat protein” value under setting [1] was 0.0155 µM.

Regarding “UCGGCGUCAGGAUAUCCAAUAUAUGACAUGAGGAUCACCCAUGUUUCCACUCGUACCUCCGGAGAAGGGACGAAUU [Ex5 #92] (Eterna round: R97, puzzle: Exclusion 5)”, the “apparent KD of MS2 coat protein” value is, setting by setting: (input ligand: FMN 200 uM) 0.0335 µM; (input ligand: none) 0.0321 µM.

As for “UCGGGAUGAGGAUAUACAUAGAAAUAGAUUCAUGUAAAACUACAUGAGGAUCACCCAUGUAGAAGGCAUUCCGU [Mat - Exclusion 2 - JL Mod - D58] (Eterna round: R97, puzzle: Exclusion 2)”, the “apparent KD of MS2 coat protein” value is 0.11 µM (input ligand: FMN 200 uM) and 0.0242 µM (input ligand: none).

Consider “UCGUAGGAAGGAUAUGCAUGCUUUGAUAAAUCCAGGCCUGGACAUGAGGAUCACCCAUGUAGAAGGUCCACGGA [EX2 B.11] (Eterna round: R97, puzzle: Exclusion 2)”, for which the “apparent KD of MS2 coat protein” value reads like this: (input ligand: FMN 200 uM) 0.0366 µM; (input ligand: none) 0.0314 µM.

“UCGUAGUCAGGAUAUACAUGAGGAUCACCCAUGUAAAAUUUUAAUUUAAUUUUAAGGUGUAGAAGGGACCAGUU [Ex3 #22] (Eterna round: R97, puzzle: Exclusion 3)”: the “apparent KD of MS2 coat protein” value is, setting by setting: (input ligand: FMN 200 uM) 0.0434 µM; (input ligand: none) 0.0518 µM.

“UCGUCGUCUGCGCCUGGACACAUGAGGAUCACCCAUGUCCCUAGCGGUUUACCGCUGUGACAAAACAAGCUGCUCGU [Eternabot (Original) Solution 25] (Eterna round: R97, puzzle: Sensor, turn-off variant 1)”: the “apparent KD of MS2 coat protein” value (input ligand: FMN 200 uM) was determined as 0.145 µM and the “apparent KD of MS2 coat protein” value (input ligand: none) came out at 0.185 µM.

Take “UCGUGGUUACUCUGCAGUUUCCUGAGCGGAGGCUCUUUGACAUGAGGAUCACCCAUGUUGCUUUUUGCUCAUCUUAA [JR_SV3TOV2_Sub041] (puzzle: Sensor v3, turn-off variant 2)”: the “apparent KD of MS2 coat protein” value reads like this: under setting [3], 0.0142 µM; under setting [1], 0.0158 µM; under setting [4], 0.0124 µM.

As for “UCGUGUUUAGAGGAUAUAUUAAUAUUUUAAACAAUAGAAGGCUAAACAUGAGGAUCACCCAUGUAUUUGGUUUU [JR_Ex6_Sub055] (Eterna round: R97, puzzle: Exclusion 6)”, the “apparent KD of MS2 coat protein” value is, setting by setting: (input ligand: FMN 200 uM) 0.0466 µM; (input ligand: none) 0.233 µM.

With “UCGUUCCGUGUAGGAUAUUGGCCUGCUCUGGGUCGAGAAGGACAUGAGGAUCACCCAUGUAUGUUAUUAUCACGCGUGGCGCAU [Design 81] (Eterna round: R96, puzzle: Exclusion NG 1)”, the “apparent KD of MS2 coat protein” value is, setting by setting: (input ligand: FMN 200 uM) 0.0617 µM; under setting [2], 0.0229 µM; (input ligand: none) 0.0318 µM.

“UCUAGACAUGAGGAUCACCCAUGUGAGGAUAUGAUGCGAUCGUCGAAAGACGAUAGCAUCAGAAGGCACAAAUG [Fiskers Ex 1 - 12] (Eterna round: R96, puzzle: Exclusion 1)”: the “apparent KD of MS2 coat protein” value (input ligand: FMN 200 uM) was found to be 0.2 µM, the “apparent KD of MS2 coat protein” value under setting [2] was 0.0536 µM and the “apparent KD of MS2 coat protein” value (input ligand: none) was found to be 0.0723 µM.

Turning to “UCUAGACAUGAGGAUCACCCAUGUGAGGAUAUGAUGCGAUCGUCGAAAGACGAUAGCAUCAGAAGGCACAAAUG [Fiskers Ex 1 - 12] (puzzle: Exclusion 1)”, the “apparent KD of MS2 coat protein” value came out at 0.153 µM under setting [3], 0.0569 µM under setting [1] and 0.0699 µM under setting [4].

On to “UCUAUGAUGCGAGGAUAUCGACCAUUCCUCUUUACAUGAGGAUCACCCAUGUUCGUACGCUACAACGAGAAGGCGCACUAAGAU [JR_ExcNG2_Sub059] (Eterna round: R96, puzzle: Exclusion NG 2)”, for which the “apparent KD of MS2 coat protein” value by setting is: (input ligand: FMN 200 uM) 0.438 µM; under setting [2], 0.101 µM; (input ligand: none) 0.194 µM.

“UCUCCCACUCGAGGAUAUCCAUAGAGCAACUGAGGAGAAGGCGAGUGUCCAAAACAUGAGGAUCACCCAUGUGACCUCCCGAAC [Eredgein] (Eterna round: R96, puzzle: Exclusion NG 1)”: the “apparent KD of MS2 coat protein” value reads like this: (input ligand: FMN 200 uM) 0.101 µM; under setting [2], 0.0375 µM; (input ligand: none) 0.0396 µM.

In the case of “UCUCCCGCUCGAGGAUAUCCAUAGAGCAACUGAGGAGAAGGCGAGCGUCCUAAACAUGAGGAUCACCCAUGUGACCUCCCGAAC [Zabiledila] (Eterna round: R96, puzzle: Exclusion NG 1)”, the “apparent KD of MS2 coat protein” value (input ligand: FMN 200 uM) came out at 0.055 µM, the “apparent KD of MS2 coat protein” value under setting [2] was 0.0412 µM and the “apparent KD of MS2 coat protein” value (input ligand: none) was 0.0391 µM.

Consider “UCUCCCUGGCGAGGAUAUCCUGUGCGGUUCCGGCUCGUGUCUGUUACAUGAGGAUCACCCAUGUGGGAGAAGGUGCCUGUGGCU [Design 93] (Eterna round: R96, puzzle: Exclusion NG 2)”, for which the “apparent KD of MS2 coat protein” value runs as follows: (input ligand: FMN 200 uM) 0.141 µM; under setting [2], 0.068 µM; (input ligand: none) 0.124 µM.

With “UCUCGACAUGAGGAUCACCCAUGUCAGGAUAUUGUAUUGGAGGUGUUUAACCUUAUGGCAAGAAGGGAUGUGUG [LRO-Excl1-25] (puzzle: Exclusion 1)”, the “apparent KD of MS2 coat protein” value under setting [1] is 0.0229 µM.

Take “UCUCGCGGGCAAGGAUAUCCCACACUGUUCUGGCCCGUGUCUGUUACAUGAGGAUCACCCAUGUGGGAGAAGGUGCACCAGGGC [Design 44] (Eterna round: R96, puzzle: Exclusion NG 2)”: the “apparent KD of MS2 coat protein” value by setting is: (input ligand: FMN 200 uM) 0.0788 µM; under setting [2], 0.0316 µM; (input ligand: none) 0.0359 µM.

Take “UCUCGCGGGCAAGGAUAUCCUACGUUGUUCUGGCCCGGGCAUGUUACAUGAGGAUCACCCAUGUGGGAGAAGGUGCGCCAGGGC [Design 36] (Eterna round: R96, puzzle: Exclusion NG 2)”: the “apparent KD of MS2 coat protein” value reads like this: (input ligand: FMN 200 uM) 0.0368 µM; under setting [2], 0.0282 µM; (input ligand: none) 0.0367 µM.

For “UCUCUGCGAGGAUAUACGUGCGCGCGCGCGCGCGCGCGCGUACAUGAGGAUCACCCAUGUAGAAGGCGCUCUGC [Apr-15 SS2-3] (puzzle: Exclusion 2)”, under setting [1], the “apparent KD of MS2 coat protein” value is 0.0194 µM.

Take “UCUGCCGCCGUGAGGAUAUGCCCGCGCAAACGCGGGCAGAAGGCACAUGAGGAUCACCCAUGUCCCGCGGUUUU [salish99_bmx4_r4_133] (Eterna round: R97, puzzle: Brourd's mod of Exclusion 4)”: the “apparent KD of MS2 coat protein” value by setting is: (input ligand: FMN 200 uM) 0.0387 µM; (input ligand: none) 0.0183 µM.

Take “UCUGGUCGAGGAUAUACAUGAGGAUCACCCAUGUAGAUCAACCAGCUUCGGCUGGAAUGUAGAAGGCGACCAGA [E3/5-A6] (Eterna round: R97, puzzle: Exclusion 3)”: the “apparent KD of MS2 coat protein” value runs as follows: (input ligand: FMN 200 uM) 0.149 µM; (input ligand: none) 0.0198 µM.

“UCUGGUCGAGGAUAUACAUUCGUGCUUCGGCACGUAAGGUCACAUGAGGAUCACCCAUGUAGAAGGCGACCAGA [E2/7-A3] (Eterna round: R97, puzzle: Exclusion 2)”: the “apparent KD of MS2 coat protein” value (input ligand: FMN 200 uM) worked out at 0.181 µM and the “apparent KD of MS2 coat protein” value (input ligand: none) stood at 0.0384 µM.

In the case of “UCUGUUGAAGGAUAUGCGUAACGAGUUACGGCUCGAGGUCUACAUGAGGAUCACCCAUGUAGAAGGUCAUCAGA [EX2 #70] (Eterna round: R97, puzzle: Exclusion 2)”, the “apparent KD of MS2 coat protein” value is, setting by setting: (input ligand: FMN 200 uM) 0.0158 µM; (input ligand: none) 0.0151 µM.

On to “UCUGUUUUGCGAGGAUAUCGACCAUUCCUCUUAACAUGAGGAUCACCCAUGUGCUAAACCUACAACGAGAAGGCGCUCAUACUC [JR_ExcNG2_Sub067] (Eterna round: R96, puzzle: Exclusion NG 2)”, for which the “apparent KD of MS2 coat protein” value runs as follows: (input ligand: FMN 200 uM) 0.0608 µM; under setting [2], 0.05 µM; (input ligand: none) 0.0519 µM.

Regarding “UCUUAGUCAGGAUAUACAUGAGGAUCACCCAUGUAAAAUUUUAAUUUAAUUUUAAGGUGUAGAAGGGACCACCC [Ex3 #17] (Eterna round: R97, puzzle: Exclusion 3)”, the “apparent KD of MS2 coat protein” value (input ligand: FMN 200 uM) is 0.0332 µM and the “apparent KD of MS2 coat protein” value (input ligand: none) was determined as 0.0375 µM.

Source of the values: the supplement of paper PMC9170038.
